From US20080227700A1, “Compositions and Methods for Treatment of Protein Misfolding and Protein Aggregation Diseases” (priority 2004, published 2008)

Columns and labels:
γD crystallin = molecular target: T1, γD crystallin (Homo sapiens, UniProt P07320); assay: Protein pin array interaction with γD crystallin; format: binding; set-up: purchased; details: unheated γD crystallin; similar peptide sequences with γD crystallin pre-heated at 45° C. for fifteen minutes
T1 sequence (P07320 1-174): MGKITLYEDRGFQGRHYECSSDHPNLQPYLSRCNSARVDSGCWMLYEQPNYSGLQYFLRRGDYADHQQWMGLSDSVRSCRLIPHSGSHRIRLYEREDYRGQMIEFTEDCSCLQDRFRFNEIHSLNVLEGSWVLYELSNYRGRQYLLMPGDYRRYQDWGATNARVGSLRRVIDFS
Source text: (§1) Synthesis of Pins, binding and detection of peptides binding to ligand proteins. The αB crystallin protein pin array was used to measure the interaction between peptides and chaperone target proteins including bovine βH crystallin, human γD crystallin, equine alcohol dehydrogenase (ADH) and porcine citrate synthase (CS) as described (FIG. 12). Ghosh and Clark, Protein Sci 14: 684-95, 2005.
(§2) Refer to the methods section for detailed protocols. The absorbance corresponding to the blue coloration in each well was measured at λ=450 nm and plotted against the amino acid sequence of the corresponding peptide in that well (FIGS. 13 and 14). Wells containing peptides that have strong interactions with target proteins are dark blue and wells containing peptides that have weak or no interaction with target proteins are light blue or clear.
(§3) The purity of the target proteins used in the pin array assays, bovine βH crystallin, human γD crystallin, equine alcohol dehydrogenase (ADH) and porcine citrate synthase (CS) were determined to be >90% by SDS-PAGE. In addition, primary antibodies for each target protein were specific to that target protein and consequently contaminating proteins that may bind to the peptides will not be detected. Eighty-four sequential and overlapping peptide fragments corresponding to residues 1-175 of human αB crystallin were synthesized employing a simultaneous peptide synthesis strategy developed by Geysen, called Multipin Peptide Synthesis (Mimotopes, San Diego, Calif.). Geysen, Southeast Asian J Trop Med Public Health 21: 523-33, 1990; Chin et al., J Org Chem 62: 538-539, 1997. Peptides were immobilized on derivatized polyethylene pins arranged in a microtiter ELISA plate format. Each peptide was eight amino acids in length and consecutive peptides were offset by two amino acids. All peptides were bound covalently to the surface of the plastic pins. The first peptide was […] for human αB crystallin.
(§4) Ghosh and Clark, Protein Sci 14: 684-95, 2005. […] The intensity of the blue color in the wells was measured at 450 nm using an ELISA plate-reader (BioTek, Winooski, Vt.). The intensity of the blue color (plotted on the X-axis) was a measure of the interaction between αB crystallin peptides (plotted on the Y-axis) and target proteins. To measure the effect of temperature on the interactions between interactive peptides and the target proteins, the target proteins were heated in a water-bath at 45° C. for fifteen minutes prior to use. Pin arrays are unable to differentiate between monomers, dimers or oligomers of target proteins that exist in solution. Instead, pin arrays are very sensitive detectors of interactions between individual peptides and the entire population (monomers, dimers or oligomers) of specific target proteins that may exist in solution under specific conditions. Each target protein was assayed two to five times. A single pin array was used for all experiments and no change in interactions was observed after more than thirty repetitions. The last three peptides of the protein pin array, 163REEKPAVT170, 165EKPAVTAA172, 167PAVTAAPK174, correspond to the epitope (163REEKPAVTAAPKK175) recognized by the primary antibody for human αB crystallin. A positive reaction is observed for these three peptides in the absence of human αB crystallin as the ligand due to direct binding of the anti-human αB crystallin antibody to these three peptides. The loss of efficiency for the pin array was measured using this assay. The loss of efficiency for the pin array was determined to be <5% by after more than 30 assays.
(§5) The amino acid sequences of each 8-mer human αB crystallin peptide immobilized sequentially on 84 pins in a 96-well ELISA plate format are listed on the Y-axis. […]

beta amyloid = beta amyloid (Homo sapiens, UniProt P05067); assay: αB crystallin protein pin array screened for binding to beta amyloid; details: immobilized 8-mer peptide; absorption at 450 nm; assayed 2-5 times
Source text: αB Crystallin peptides that bind the target protein beta-amyloid were identified by screening an αB crystallin protein pin array, which provides a systematic method for evaluating interactions between peptides corresponding to residues 1-175 of human αB crystallin and selected target proteins in a parallel and simultaneous manner.
Peptides were synthesized on derivatized polyethylene pins arranged in a microtiter plate format. Each peptide was 8 amino acids in length and consecutive peptides were offset by 2 amino acids. All peptides were covalently bonded to the surface plastic pins. The first immobilized peptide was 1MDIAIHHP8 and the last peptide was 168PAVTAAPK175 for the human αB crystallin.
After synthesis, the pins were pre-coated at room temperature with 2% Bovine Serum Albumin (BSA), 0.1% Tween-20 and 0.1% Sodium azide in 10 mM phosphate buffered saline pH 7.2 (PBS) for 1 hr, and washed three times for 10 mins each with 10 mM PBS. To screen for binding to the peptides, fixed concentrations of the target protein beta amyloid was dissolved in 10 mM PBS, containing 0.05% Tween-20, added to each well and incubated for 1 hr at room temperature. The pin array was washed three times for 10 mins each with 10 mM PBS, containing 0.05% Tween-20. Monoclonal or polyclonal primary antibodies for the target protein beta amyloid was diluted into PBS buffer, added to each well and incubated for 1 hr at room temperature. Subsequently, the pin array was washed three times for 10 mins each with 10 mM PBS containing 0.05% Tween-20. Anti-rabbit horse-radish peroxidase conjugate secondary antibodies was diluted into PBS buffer, added to each well and incubated for 1 hr at room temperature. The pin array was washed three times for 10 mins each with 10 mM PBS containing 0.05% Tween-20. A chromogenic substrate of horse-radish peroxidase 3,3′,5,5′-Tetramethylbenzidine (TMB) (Pharmingen, San Diego, Calif.) which is colorless was added, and the reaction was carried out for 45 min.
The reaction was stopped by adding 6N sulfuric acid, which changes the color from blue to yellow. The absorption at 450 nm was measured by an ELISA reader (BioTek, Winooski, Vt.).
The pin array was regenerated by sonication in a water bath (VWR Aquasonic, West Chester, Pa.) with 100 mM PBS, containing 1% Sodium dodecyl sulfate (SDS) and 0.1% 2-Mercaptoethanol @ 60° C. for 10 mins. Next, the pin array was rinsed three times in deionized water, preheated to 60° C. for 30 secs each time, and shaken in water preheated at 60° C. for 30 min. The pin array was then washed with methanol at 60° C. for 15 secs and air-dried and stored @−20° C. for future use. Each target protein was assayed 2-5 times against the human αB crystallin protein pin array peptides to verify the reproducibility of the results. Peptides numbered 5, 7, 8, 9, 13, 19, 22, 23, 24, 27, 35, 38, 45, 51, 52, 56, 57, 61, 66, 71, 72, and 79 in Table 2 reproducibly tested positive in the protein pin assay.

[1] = molecular target: T2, equine alcohol dehydrogenase (ADH) (Equus caballus, UniProt P00327); assay: Protein pin array interaction with alcohol dehydrogenase; format: binding; details: ADH as ligand, unheated and pre-heated
T2 construct: purchased
Source text: as §1, §2, §3, §4
(§6) The Y-axis lists the amino acid sequences of the 8-mer peptides that are immobilized sequentially in a 96-well format. […]

bovine βH crystallin = assay: Protein pin array interaction with βH crystallin; format: binding; details: unheated βH crystallin; similar maxima with βH crystallin pre-heated at 45° C. for fifteen minutes
Source text: as §1, §2, §3, §4, §5

[2] = molecular target: T3, porcine citrate synthase (CS) (Sus scrofa, UniProt P00889); assay: Protein pin array interaction with citrate synthase; format: binding; details: CS as target protein, unheated and pre-heated
T3 construct: purchased
T3 sequence (P00889 28-464): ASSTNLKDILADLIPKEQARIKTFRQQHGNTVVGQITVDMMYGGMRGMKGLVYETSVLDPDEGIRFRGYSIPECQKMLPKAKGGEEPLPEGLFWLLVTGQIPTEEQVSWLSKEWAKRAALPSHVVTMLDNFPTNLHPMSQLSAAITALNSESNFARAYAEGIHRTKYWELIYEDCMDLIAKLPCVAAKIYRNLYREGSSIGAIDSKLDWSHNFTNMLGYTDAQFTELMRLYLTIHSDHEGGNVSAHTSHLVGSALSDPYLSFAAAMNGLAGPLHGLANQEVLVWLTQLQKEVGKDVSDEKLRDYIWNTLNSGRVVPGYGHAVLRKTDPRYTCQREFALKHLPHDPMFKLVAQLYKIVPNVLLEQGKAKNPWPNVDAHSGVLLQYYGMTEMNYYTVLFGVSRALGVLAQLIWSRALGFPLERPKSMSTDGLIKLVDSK
Source text: as §1, §2, §3, §4, §6

T2 sequence (P00327 whole entry): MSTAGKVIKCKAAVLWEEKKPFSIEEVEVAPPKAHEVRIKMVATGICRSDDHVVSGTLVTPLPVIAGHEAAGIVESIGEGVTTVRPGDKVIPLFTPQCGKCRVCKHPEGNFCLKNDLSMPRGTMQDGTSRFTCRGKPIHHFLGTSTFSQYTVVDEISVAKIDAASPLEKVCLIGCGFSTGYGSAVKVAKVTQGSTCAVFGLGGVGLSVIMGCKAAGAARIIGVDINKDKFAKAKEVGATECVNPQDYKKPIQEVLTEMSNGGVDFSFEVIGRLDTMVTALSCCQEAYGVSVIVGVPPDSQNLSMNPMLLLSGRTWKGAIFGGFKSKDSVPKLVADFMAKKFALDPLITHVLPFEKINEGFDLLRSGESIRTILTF

| Sequence | absorbance at λ=450 nm, interaction with γD crystallin (γD crystallin) | protein pin assay result with target protein beta amyloid (beta amyloid) | absorbance at λ=450 nm, interaction with ADH [1] | absorbance at λ=450 nm, interaction with βH crystallin (bovine βH crystallin) | absorbance at λ=450 nm, interaction with CS [2] |
| --- | --- | --- | --- | --- | --- |
| DQFFGEHL [Peptide 13] | maximum absorbances | positive | – | – | – |
| EFHRKYRI [Peptide 59] | maximum absorbances | – | – | – | – |
| FFGEHLLE [Peptide 14] | – | – | Maximum absorbances | – | – |
| FHSPSRLF [Peptide 9] | – | positive | – | – | – |
| FISREFHR [Peptide 57] | – | positive | – | Maximum absorbances | absorbance maxima |
| FPFHSPSR [Peptide 8] | – | positive | – | – | absorbance maxima |
| FSVNLDVK [Peptide 38] | maximum absorbances | positive | Maximum absorbances | Maximum absorbances | absorbance maxima |
| FYLRPPSF [Peptide 24] | maximum absorbances | positive | – | Maximum absorbances | absorbance maxima |
| GVLTVNGP [Peptide 71] | maximum absorbances | positive | Maximum absorbances | Maximum absorbances | – |
| HGFISREF [Peptide 56] | maximum absorbances | positive | – | – | – |
| HGKHEERQ [Peptide 51] | – | positive | – | – | – |
| IAIHHPWI [Peptide 2] | maximum absorbances | – | – | – | – |
| KHEERQDE [Peptide 52] | – | positive | – | – | – |
| KYRIPADV [Peptide 61] | – | positive | – | Maximum absorbances | – |
| LFPTSTSL [Peptide 19] | – | positive | Maximum absorbances | – | – |
| LKVKVLGD [Peptide 45] | – | positive | – | Maximum absorbances | – |
| LRAPSWFD [Peptide 28] | – | – | – | – | absorbance maxima |
| LRPPSFLR [Peptide 25] | – | – | Maximum absorbances | – | – |
| LTITSSLS [Peptide 66] | maximum absorbances | positive | Maximum absorbances | Maximum absorbances | absorbance maxima |
| LTVNGPRK [Peptide 72] | – | positive | – | – | absorbance maxima |
| PFFPFHSP [Peptide 7] | maximum absorbances | positive | Maximum absorbances | – | – |
| PPSFLRAP [Peptide 26] | – | – | – | Maximum absorbances | – |
| RLEKDRFS [Peptide 35] | – | positive | Maximum absorbances | Maximum absorbances | – |
| RTIPITRE [Peptide 79] | – | positive | Maximum absorbances | Maximum absorbances | absorbance maxima |
| SFLRAPSW [Peptide 27] | maximum absorbances | positive | – | – | – |
| SLSPFYLR [Peptide 22] | maximum absorbances | positive | Maximum absorbances | – | absorbance maxima |
| SPFYLRPP [Peptide 23] | – | positive | – | Maximum absorbances | – |
| SREFHRKY [Peptide 58] | – | – | Maximum absorbances | – | – |
